Reference: the nanobody polyreactivity screen of Harvey et al. (2022)

Assay: yeast display, Sf9 membrane polyspecificity reagent, FACS + sequencing; frameworks hold sequencing errors
Method in brief: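 Galactose-induced (36–48 hours) yeast carrying a synthetic nanobody display library were exposed to 10% biotinylated, detergent-solubilized Sf9 membrane reagent at 4 °C for 1 hour. FACS followed streptavidin microbead enrichment, using low and high (top ~1%) gates for expression (anti-HA) and reagent binding (streptavidin). Colony PCR, MiSeq 2 × 250 sequencing and CDR-length filtering followed. Labels for polyreactivity reflect the gate of origin.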

Row | Sequence | polyreactivity (PSR sort gate)
1 | QVQLVESGGGLVQAGGSHRLSCAASGRTFEYNAMGWYRQAPGKERELVATITRASTNYADSVKGRFTISRDNAKNTVYLQMNSLKPEDTAVYYCNARARGRRYPYSKYYYWGQGTQVTVSS | high polyreactivity
2 | QGQLVESGGGLVQAGGSLRLSCAASGFTFWYYAKGWSRQAPRKEREMVAVINTSGASTYADSVKGRFTISRDNAKITVDLQMNSLKPEDTAVYYCAAEGIATYPYDYWGHGTQVTVSS | low polyreactivity
3 | QVQLVESGGGLVQAGGSLRLSCAASGFIFQGNAMGWYRQAPGKEREFVAAISWSGGRTYYADSVKGRFTISRDNAKNTVYLQMNSLKPEDTAVYYCAVTPVRFASGGAWMDYWGQGTQVTVSS | high polyreactivity
4 | QVQLVESGGGLVQAGGSLRLSCAASGFIFIINAMGWYRQAPGKEREFVAAITGSGGSTYYADSVKGRFTISRDNAKNTVYLQMNSLKPEDTAVYYCAKVGPYYSGKVYGRTYYSRYGYWGQGTQVTVSS | low polyreactivity
5 | QVQLVESGGGLVQAGGSLRLSCAASGFTFRRYAMGWYIQAPGKERELVAAIRSTGGSTYYADSVKGRFTISRDNAKNTVYLQMNSLKPEDTAVYYCNAGTPVRGYNYWGQGTQVTVSS | high polyreactivity
6 | QVQLVESGGGLVQAGGSLRLSCAASGSIFTADAMGWYRQAPGKERELVAAISRSGGRTYYADSVKGRFTISRDNAKNTDYLQMNSLKPEDTAVYYCAAAFASQYRVVKYYYWGQGTQVTVSS | high polyreactivity
7 | QVQLVESGGGIVQAGGSLRLSCAASGRTFRYNTMGSYRQAPGKERELVAAINSRGGSTYYADSVKGRFTISRDNAKNTVYLQMNSLKPEDTAVYYCAALTRYNTASGYDYWGQGTQVTVSS | high polyreactivity
8 | QVQLVESGRGLVQAGGSLRLSCAASGRIFVAYTMGLYRQAPGKERELVASINRSGGTYYADSVKGRFTISRDNAKNTVYLQMNRLKPEDTAVYYCNAVFRSRSYFSKGDYWGQGTQVTVSS | high polyreactivity
9 | QVQLVESGGGLVQAGGSLRLSCAASGSIFSVYAMGWYRQAPGKERELVASITRSGGRTYYADSVKGRFTISRDNPKNTVYLQMNSLKPEDTAVYYCAADRLGSISGYDYWGQGTQVTVSS | high polyreactivity
10 | QVQLVESGGGLVQAGGSLRLSCAASGRTFLFYAMGWYRQAPGKERELVAAIRRGGSTYYADSVKGRFTISRDNAKNTVYLQMNSLKPEDTAVYYCNAGSALRRSYYRYYYWGQGTQVTVSS | high polyreactivity
11 | QVQLVESGGGLVQAGGSLRLSCAASGTFYRYAMGWYRQAPGKERELVAAIDKTGDTTYYADSVKGRFTISRDNAKNTVYLQMNSLKPEDTAVYYCAATGYPRFGYWGQGTQVTVSS | high polyreactivity
12 | QVQLVESGGGLVQAGGSLRLSCAASGSIFYKYMGWYRQAPGKERELVAAITWSGGSTYYADSVKGRFTISRDNAKNTVYLQMNSLKPEDTAVYYCNADDRHSRVGHSWQDAQFDYWGLGTQVTVSS | high polyreactivity
13 | QVQLVESGGGLVQAGGSLRLSCAASGFIFDYNAMGWYRQAPGKERELVAAISISGGGTYYADSVKGRFTISRDNAKNTVYLQMNSLKPEDTAVYYCATAGRYDAYDYWGQGTQVTVSS | low polyreactivity
14 | QVQLVESGGGLVQAGGSLRLSCAASGSTFNYYAMGWYRPAPGKERELVAAISWSGGSTYYADSVKGRFTISRDNAKNTVYLQMNSLKPEDTAVYYCAAYPARPWARGDRRRIRFWGQGTQVTVSS | high polyreactivity
15 | QVQLVESGGGLVQAGGRLRLSCAASGYIFSRYAMGWYRQAPGKERELVAAISKSGSSTYYADSVKGRFTISRDNAKNTVYLQMNSLKPEDTAVYYCATSYSVGYDYWGQGTQVTVSS | high polyreactivity
16 | QVQLVESGGGLVQAGGSLRLSCAAAGNTIRVNAMGWYRHAHGKERELVAAISFSGGRTYYADSVKGRFTISRDNAKNTVYLQMNSLKPEDTAVYYCAALRRYPRPNIYGYWGQGTQVTVSS | low polyreactivity
17 | QVHLVESGGGLVQAGRSLRLICAASGSTFDYYAMGWYRQAPGKERELVAGIDSAGSTNYADSVKGRFTISRDNAKNTVYLQMNSLKTGRYRGLYCNVGKTITTYAFPTFDYWRQGTQVTVSS | low polyreactivity
18 | QVQLVESGGGLVQAGGSLRLSCAASGSTFALNAMGWYRQAPGKERELVADINYIGDSTYYADSVKGRFTISRDNAKNTVYLLMNSLKPEDTAVYYCAAKSIIRPYAPRRDDMDYWGQGTQVTVSS | low polyreactivity
19 | QVQLVESGGGLVQAGGSLRLSCAASGLTFVPNAMGWSRQAPGKERELVAGITSAGSTYYADSVKGRFTISRDNAKNTVYLQMNSLKPEDSAVYYCAKQFYRGFRYGYWGQGTQVTVSS | high polyreactivity
20 | QVQLVESGGGLVQAGGSLRLSCAASGFTFNANAMGWYRQAPGKERELVAVITRSGGRTYYADSVKGRFTISRDNAKNTVYLQMNSLKPEDTEVYYCAKECPSRVYQGTDSASDYWGQGTQVTVSS | high polyreactivity
21 | QVQLVESGGGLVQAGGSLRLSCAASGSTIYWYAMGWYRQAPGKERELVAAISLSGGSTYYADSVKGRFTFSRDNAKNTVYLQMNSLKPEDTAVYYCAARTSYYVYRHPSGRYDYWGQGTQVTVSS | low polyreactivity
22 | QVQLVESGGGLVQAGGSLRLSCAASGSIFDIYAMGWYRQAPGKERELVADITISGGSTYYADSVKGRFTISRDNAKNTVYLQMNSLKPEDTAVYYCAADVTVVLGYKYDYWGQGTQVTVSS | low polyreactivity

Row | Sequence | polyreactivity (PSR sort gate)
23 | QVQLVESGGGLVQAGGSLRLSCAASGSIFPYNAMGCYRQAPGKEMELVAVITSSGASTYYADSVKGRFTISLDNSKNTVYLQMNSLKPEDTAVYYCAARGYNYYFGGYDYWGQGTQVTVSS | low polyreactivity
24 | QVQLVESGGGLVQAGGSLRLSCAASGIISGDYAMAWYRQAHGKERELVARITSGDSTNYADSVKGRFTISRDNAKNTVYLQMNSLKPEDTAVYYCAADRVWAYWTYGYWGQGTQVTVSS | low polyreactivity
25 | QVQLVESGGGLVQAGGSLRLSCAASGSTFKHYAMGWYRQAPGKERELVAAISSGGSTKYADSVKGRFTISRDNAKNTVYLQMNSLKPEDTAVYYCAARSFFKMYYWGQGTQVTVSS | low polyreactivity
26 | QVQLVDSVGGLVQAGGSLRLSCAASGRIFRYYAMGWYRQAPRKERELVAAITWSGGSTYYADSVKGRFTISRDNAKNTVYLQMNSLKPEDTAVYYCNADSVYAGFDYWGQGTQVTVSS | low polyreactivity
27 | QVQLVESGGGLVQPGGSLSLSCAASGFTFTYYAMGWYRQAPGKEMELVAAISWSGDSTYYADSVKGRFTISRDNAKNNVYLQMNSLKPEDSAVYYCGSEYSHTYDYWGQGTLVTVSS | low polyreactivity
28 | QVQLVESGGGLDQAGGSLRLSCAASGSTFVSNAMGWYRQAPGKERELVAAISKSGGSTYYADSVKGRFTISRDNAKNTVYLQMNSLKPEDTAVYYCAKYNAKSFYGQYDYWGQGTQVTVSS | high polyreactivity
29 | QVQLVESGGGLVQAGGSLRLSCAASGFTSYLYTMGWYRQAPGKERELVAAISNSGGNTYYADSVKGRFTISRDNAKNTVYLQMNSLKPEDTAVYYCAARLFAAKYRYGYWGQGTQVTVSS | high polyreactivity
30 | QVQLVESGGALVQAGGSLRLSCAASRSTSKNYAMGWYRQAPGKERELVAAITRGTSTNYADSVKGRFTISRDNAKNTVYFQMNSLKPEDSAVYYCNVERHRVWDYQWREEDDYWGQGTQVTVSS | low polyreactivity
31 | QVHLVESVGGLVQAGGSLRLSCAASGFIYKPYAMGWYRQAPGKERELVAAITVNGCTTYYADSVKARFTISRDNAKNTVYLQMNSLKPEDTAVYYCNRGSPGGPSWYHYDYWGQGTQVTVSS | high polyreactivity
32 | QVQLGESGGGLVQAGGSLRLSCAASGRIFASNAMGWYRPAPGKESELVAAIDQSGGSTYYADSVKGRFTISRDNAKNTVYLQMNSLKPEDTAVYYCAARAYLISSSTPFWTGYDSWGQGTQVTVSS | low polyreactivity
33 | QVQLVESGGGLVQAGGSLRLSCAASGSIFKGYAMGWYRQAPGKERELVAAITGGGGSTYYADSVKGRFTISRDNAKNTVYLQMNSLKPEDTAVYYCAADARVKRYYFRKSGYWGQGTQVTVSS | high polyreactivity
34 | QVQLVESGGGLVQAGGSLRLSCAASGSIFEPNAMGWYRQAPGKERELVAAISWNDGDTYYADSVKGRFTISRDNAKNTVYLQMNCLKPEDTAVYYCAAETGYAFDYWGQGTQVTVSS | low polyreactivity
35 | QVQHVESGGGLVQAGGSLRLSCAASRFIFVTYAMGCYIQAPGKERELVAAITNSGGTTYYADSVKGRFTISRDNAKNTVYLQMNSLKPEDTAVYYCNKPYGAETAHREFDYWGQGTQVTVSS | low polyreactivity
36 | QVQLVDSGGGLVQAGGSLRITCAASVLTFRRNPMGWYRQAPGKARELLGTITSGGSTNYADTVKGRFTISRDNAKNTVYLQMNSLKPEDTAVYYCNSVHLRIMYYWGQGTQVTVSS | high polyreactivity
37 | QVQLVETGAGLVQAGGSLRLSCAASGRTYVYNAMGWYRQAPGKERELVAAIDGGGDRTYYADSVKGRFTISRDNAKNTVYLQMNSRKPEDTAVYYCARDQGDTYYYSYPEGDYWGQGTQVTVSS | low polyreactivity
38 | QVQLVESGGGLVQAGGSLRLSCAASGSIYVNAMGWYRQEPGKERELVAVISKSGGSTYYADSVKGRFTISRDNAKNTVYLQMNSLKPEDTAVYYCATRGVSPSRPGYYWGQGTKVTVSS | high polyreactivity
39 | QVQLVESGGGLVQAGGSLRLSCAASGSIFAYNAMGWYRQAPGKERELVAGISSRGGRTYYADSVKGRFTISRDNAKNTVYLQKNSLKPEDTAVYNCNKRSVPGTYYPTPVRYKYDYWGQGTQVTVSS | high polyreactivity
40 | QVQLVESGGGLVQAGGSLRLSCAASGSTFVYYAMGWYRQAPGKERELVAAISWSGTRTYYADSVKGRFTISRDNAKNTVYLQMNSLKPEDTAVYYCAARLRANQVKLYYWGQGTQVTVSS | high polyreactivity
41 | QVQLVESCGGLVQAGGSLRLSCAASGLTFIFNAMGWYRQAPGKEREFVADISSGVNTNYADSVKGRFTISRDNAKNTVYLQMNSLKPEDTAVYYCNKDVNAYGGASIRGYTMYYWGQGTQVTVSS | low polyreactivity
42 | QVQLVESGGGLVQAGCSLRLSCAASGSTFYYYAMGWYRQAPGKERELVAAISNRDGRTYYADSVKGRFTISRDTAKNTVYFQMNSLKPEDSAVYYCNAYSYGHYYWGHGTQVTVSS | high polyreactivity
43 | QVQLVESGGGLVQAGGSLRLSCAASGRIFNRYAMGWYRQAPGKEREFVAGITWNGGSTYYADSVKGRFTISRDNAKNTVYLQMNSLKPEDTAVYYCAATHYYYGTSRYDYWGQGTQVTVSS | high polyreactivity
